In the supplement of paper PMC9876800:

test system: peptide library, one residue held at a place counted from the S/T acceptor; assay: relative phosphorylation of the sub-library (ratio to the mean residue at this position); human; higher = residue favoured; conditions: E fixed; at +4
Procedure, shortened: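 Spots on streptavidin membranes were phosphorimaged and quantified by densitometry to measure phosphorylation of biotinylated degenerate peptide sub-libraries by purified recombinant kinases, human or orthologue constructs. The reactions ran in 384-well plates for 90 min under kinase-specific conditions, with peptides at 50 μM and 50 μM ATP spiked with γ-32P-ATP. Relative sub-library phosphorylation is the ratio to the mean residue at that position.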

Sequence of TSSK1B, construct: Full length (Q9BXA7 whole entry, looked up): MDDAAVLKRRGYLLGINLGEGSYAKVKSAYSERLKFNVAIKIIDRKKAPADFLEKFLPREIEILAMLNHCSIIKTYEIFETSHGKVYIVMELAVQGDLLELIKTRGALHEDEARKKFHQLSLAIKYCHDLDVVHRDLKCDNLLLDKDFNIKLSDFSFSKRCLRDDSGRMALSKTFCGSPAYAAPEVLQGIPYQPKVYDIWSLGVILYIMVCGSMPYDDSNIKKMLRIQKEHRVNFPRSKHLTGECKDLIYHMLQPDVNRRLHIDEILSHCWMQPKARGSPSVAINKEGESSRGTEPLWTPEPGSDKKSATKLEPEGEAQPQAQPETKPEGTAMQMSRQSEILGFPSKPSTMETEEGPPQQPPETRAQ
Sequence of CIT, construct: aa1-449 (O14578 1-449, looked up): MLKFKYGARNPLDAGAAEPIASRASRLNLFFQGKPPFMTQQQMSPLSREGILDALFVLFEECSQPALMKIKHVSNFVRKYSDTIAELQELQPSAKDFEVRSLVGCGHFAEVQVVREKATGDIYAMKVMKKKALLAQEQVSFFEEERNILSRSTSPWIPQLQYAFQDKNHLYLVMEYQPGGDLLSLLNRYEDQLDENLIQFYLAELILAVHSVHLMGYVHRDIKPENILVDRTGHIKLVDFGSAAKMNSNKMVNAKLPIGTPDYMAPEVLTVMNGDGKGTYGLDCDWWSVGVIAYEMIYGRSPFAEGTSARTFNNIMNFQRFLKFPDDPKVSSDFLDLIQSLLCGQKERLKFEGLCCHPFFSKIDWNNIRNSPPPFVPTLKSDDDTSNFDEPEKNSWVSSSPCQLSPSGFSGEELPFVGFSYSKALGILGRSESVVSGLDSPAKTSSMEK
Sequence of CSNK1G3, construct: Full length (Q9Y6M4 whole entry, looked up): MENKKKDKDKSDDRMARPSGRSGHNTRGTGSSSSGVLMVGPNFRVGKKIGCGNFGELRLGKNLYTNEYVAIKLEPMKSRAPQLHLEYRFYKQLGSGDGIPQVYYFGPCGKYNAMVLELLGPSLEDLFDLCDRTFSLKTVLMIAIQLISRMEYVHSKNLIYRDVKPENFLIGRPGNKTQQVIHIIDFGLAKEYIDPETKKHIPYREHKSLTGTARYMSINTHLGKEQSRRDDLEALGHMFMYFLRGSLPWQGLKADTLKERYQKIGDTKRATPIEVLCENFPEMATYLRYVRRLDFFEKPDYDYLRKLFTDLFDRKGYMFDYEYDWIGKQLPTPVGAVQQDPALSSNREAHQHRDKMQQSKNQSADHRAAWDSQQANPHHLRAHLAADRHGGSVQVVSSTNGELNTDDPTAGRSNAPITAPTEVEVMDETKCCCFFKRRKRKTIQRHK
Sequence of CSNK1A1L, construct: Full length (Q8N752 whole entry, looked up): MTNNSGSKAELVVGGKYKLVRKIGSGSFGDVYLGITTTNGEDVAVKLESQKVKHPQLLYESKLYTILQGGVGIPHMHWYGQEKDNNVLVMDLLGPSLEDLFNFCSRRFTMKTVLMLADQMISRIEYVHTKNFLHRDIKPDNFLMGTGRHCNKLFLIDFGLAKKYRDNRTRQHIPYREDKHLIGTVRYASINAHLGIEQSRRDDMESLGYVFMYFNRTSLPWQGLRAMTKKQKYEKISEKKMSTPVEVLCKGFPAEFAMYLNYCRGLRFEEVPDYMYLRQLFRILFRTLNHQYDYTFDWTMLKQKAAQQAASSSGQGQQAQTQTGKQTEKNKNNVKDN
Sequence of ACVR1B, construct: aa150-end (P36896 150-505, looked up): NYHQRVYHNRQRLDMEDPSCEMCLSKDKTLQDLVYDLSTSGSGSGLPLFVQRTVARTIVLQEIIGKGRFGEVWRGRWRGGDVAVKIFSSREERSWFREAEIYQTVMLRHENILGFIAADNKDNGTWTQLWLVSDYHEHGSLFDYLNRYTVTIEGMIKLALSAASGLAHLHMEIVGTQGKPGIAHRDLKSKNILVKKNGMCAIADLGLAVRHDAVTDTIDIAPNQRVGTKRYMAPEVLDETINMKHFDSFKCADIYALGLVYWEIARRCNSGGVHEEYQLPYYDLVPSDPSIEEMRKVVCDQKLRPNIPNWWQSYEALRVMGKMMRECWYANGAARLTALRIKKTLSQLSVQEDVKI
Sequence of CDKL1, construct: aa2-304 (Q00532 2-304, looked up): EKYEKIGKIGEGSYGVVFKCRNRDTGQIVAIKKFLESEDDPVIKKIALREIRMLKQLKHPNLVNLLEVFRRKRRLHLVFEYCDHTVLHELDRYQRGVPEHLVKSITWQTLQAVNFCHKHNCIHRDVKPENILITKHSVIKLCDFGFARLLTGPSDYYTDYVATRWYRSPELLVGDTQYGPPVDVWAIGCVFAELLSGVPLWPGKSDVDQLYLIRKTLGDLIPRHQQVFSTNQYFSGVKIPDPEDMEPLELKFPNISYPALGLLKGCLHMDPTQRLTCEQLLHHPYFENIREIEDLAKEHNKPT
Sequence of CAMK2D, construct: Full length (Q13557 whole entry, looked up, the tested form may be a part): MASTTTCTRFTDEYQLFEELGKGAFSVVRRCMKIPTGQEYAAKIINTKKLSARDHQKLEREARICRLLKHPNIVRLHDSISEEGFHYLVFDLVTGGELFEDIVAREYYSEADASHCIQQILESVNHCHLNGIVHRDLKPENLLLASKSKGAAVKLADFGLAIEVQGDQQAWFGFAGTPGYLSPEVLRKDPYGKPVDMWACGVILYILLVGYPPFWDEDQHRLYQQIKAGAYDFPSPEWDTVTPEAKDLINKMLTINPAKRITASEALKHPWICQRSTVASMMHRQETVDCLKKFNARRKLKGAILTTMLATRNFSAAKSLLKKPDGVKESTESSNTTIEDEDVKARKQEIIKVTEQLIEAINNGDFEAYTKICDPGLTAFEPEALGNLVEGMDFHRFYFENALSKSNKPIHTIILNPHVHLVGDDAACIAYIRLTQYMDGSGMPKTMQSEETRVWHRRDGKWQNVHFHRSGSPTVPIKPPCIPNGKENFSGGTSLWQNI
Sequence of PAK1, construct: aa150-end (Q13153 150-545, looked up): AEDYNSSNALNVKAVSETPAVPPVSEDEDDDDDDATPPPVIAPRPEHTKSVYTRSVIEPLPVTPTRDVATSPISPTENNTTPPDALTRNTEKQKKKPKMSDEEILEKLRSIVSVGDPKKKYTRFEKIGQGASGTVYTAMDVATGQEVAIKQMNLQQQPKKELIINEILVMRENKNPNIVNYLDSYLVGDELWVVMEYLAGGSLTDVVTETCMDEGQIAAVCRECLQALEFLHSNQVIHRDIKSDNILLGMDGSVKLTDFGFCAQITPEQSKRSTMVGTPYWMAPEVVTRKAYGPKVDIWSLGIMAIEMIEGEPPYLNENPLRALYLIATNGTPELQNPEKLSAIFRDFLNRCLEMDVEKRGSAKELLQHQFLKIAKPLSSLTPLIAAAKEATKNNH

Compared with “CDKL1, construct: aa2-304 (from UniProt Q00532)”, “ACVR1B, construct: aa150-end (from UniProt P36896)” is higher in relative phosphorylation: 0.766 for the first, 1.19 for the second.

Compared with “TSSK1B, construct: Full length (from UniProt Q9BXA7)”, “CSNK1A1L, construct: Full length (from UniProt Q8N752)” is higher in relative phosphorylation: 0.452 for the first, 0.871 for the second.

“CSNK1G3, construct: Full length (from UniProt Q9Y6M4)” was tested, and the relative phosphorylation was 0.928.

same assay, conditions: E fixed; at -1

Compared with “CIT, construct: aa1-449 (from UniProt O14578)”, “PAK1, construct: aa150-end (from UniProt Q13153)” is higher in relative phosphorylation: 0.372 for the first, 0.559 for the second.

Going from “CAMK2D, construct: Full length (from UniProt Q13557)” to “CDKL1, construct: aa2-304 (from UniProt Q00532)”, the relative phosphorylation falls from 0.674 to 0.67.

Going from “ACVR1B, construct: aa150-end (from UniProt P36896)” to “TSSK1B, construct: Full length (from UniProt Q9BXA7)”, the relative phosphorylation falls from 1.32 to 0.506.

First: CSNK1A1L, construct: Full length (from UniProt Q8N752)
Second: CSNK1G3, construct: Full length (from UniProt Q9Y6M4)
The relative phosphorylation of the first is higher: 0.977 for the first, 0.788 for the second.

same assay, conditions: E fixed; at -2

Compared with “CIT, construct: aa1-449 (from UniProt O14578)”, “PAK1, construct: aa150-end (from UniProt Q13153)” is lower in relative phosphorylation: 0.28 for the first, 0.206 for the second.

Going from “CAMK2D, construct: Full length (from UniProt Q13557)” to “CDKL1, construct: aa2-304 (from UniProt Q00532)”, the relative phosphorylation rises from 0.625 to 0.739.

Going from “ACVR1B, construct: aa150-end (from UniProt P36896)” to “TSSK1B, construct: Full length (from UniProt Q9BXA7)”, the relative phosphorylation falls from 6.31 to 0.474.

Going from “CSNK1A1L, construct: Full length (from UniProt Q8N752)” to “CSNK1G3, construct: Full length (from UniProt Q9Y6M4)”, the relative phosphorylation rises from 0.991 to 1.27.

same assay, conditions: E fixed; at -3

Compared with “CIT, construct: aa1-449 (from UniProt O14578)”, “PAK1, construct: aa150-end (from UniProt Q13153)” is higher in relative phosphorylation: 0.171 for the first, 0.495 for the second.

First: CAMK2D, construct: Full length (from UniProt Q13557)
Second: CDKL1, construct: aa2-304 (from UniProt Q00532)
The relative phosphorylation of the first is lower: 0.316 for the first, 0.538 for the second.

Going from “ACVR1B, construct: aa150-end (from UniProt P36896)” to “TSSK1B, construct: Full length (from UniProt Q9BXA7)”, the relative phosphorylation falls from 1.52 to 0.532.

First: CSNK1A1L, construct: Full length (from UniProt Q8N752)
Second: CSNK1G3, construct: Full length (from UniProt Q9Y6M4)
The relative phosphorylation of the first is lower: 2.26 for the first, 3.58 for the second.

same assay, conditions: E fixed; at -4

Compared with “CIT, construct: aa1-449 (from UniProt O14578)”, “PAK1, construct: aa150-end (from UniProt Q13153)” is higher in relative phosphorylation: 0.504 for the first, 0.85 for the second.

Compared with “CAMK2D, construct: Full length (from UniProt Q13557)”, “CDKL1, construct: aa2-304 (from UniProt Q00532)” is higher in relative phosphorylation: 0.691 for the first, 0.917 for the second.

First: ACVR1B, construct: aa150-end (from UniProt P36896)
Second: TSSK1B, construct: Full length (from UniProt Q9BXA7)
The relative phosphorylation of the first is higher: 1.26 for the first, 0.883 for the second.

First: CSNK1A1L, construct: Full length (from UniProt Q8N752)
Second: CSNK1G3, construct: Full length (from UniProt Q9Y6M4)
The relative phosphorylation of the first is lower: 1.1 for the first, 1.78 for the second.

same assay, conditions: E fixed; at -5

Compared with “CIT, construct: aa1-449 (from UniProt O14578)”, “PAK1, construct: aa150-end (from UniProt Q13153)” is higher in relative phosphorylation: 0.276 for the first, 0.676 for the second.

Compared with “CAMK2D, construct: Full length (from UniProt Q13557)”, “CDKL1, construct: aa2-304 (from UniProt Q00532)” is higher in relative phosphorylation: 0.378 for the first, 0.809 for the second.

Going from “ACVR1B, construct: aa150-end (from UniProt P36896)” to “TSSK1B, construct: Full length (from UniProt Q9BXA7)”, the relative phosphorylation falls from 0.838 to 0.371.

Compared with “CSNK1A1L, construct: Full length (from UniProt Q8N752)”, “CSNK1G3, construct: Full length (from UniProt Q9Y6M4)” is higher in relative phosphorylation: 0.78 for the first, 1.62 for the second.

same assay, conditions: F fixed; at +1

Compared with “CIT, construct: aa1-449 (from UniProt O14578)”, “PAK1, construct: aa150-end (from UniProt Q13153)” is lower in relative phosphorylation: 1.34 for the first, 0.993 for the second.

Compared with “CAMK2D, construct: Full length (from UniProt Q13557)”, “CDKL1, construct: aa2-304 (from UniProt Q00532)” is lower in relative phosphorylation: 2.39 for the first, 0.888 for the second.

First: ACVR1B, construct: aa150-end (from UniProt P36896)
Second: TSSK1B, construct: Full length (from UniProt Q9BXA7)
The relative phosphorylation of the first is lower: 1.09 for the first, 1.1 for the second.

First: CSNK1A1L, construct: Full length (from UniProt Q8N752)
Second: CSNK1G3, construct: Full length (from UniProt Q9Y6M4)
The relative phosphorylation of the first is lower: 0.886 for the first, 1.07 for the second.

same assay, conditions: F fixed; at +2

Compared with “CIT, construct: aa1-449 (from UniProt O14578)”, “PAK1, construct: aa150-end (from UniProt Q13153)” is higher in relative phosphorylation: 1 for the first, 1.14 for the second.

Going from “CAMK2D, construct: Full length (from UniProt Q13557)” to “CDKL1, construct: aa2-304 (from UniProt Q00532)”, the relative phosphorylation rises from 0.604 to 0.829.

Compared with “ACVR1B, construct: aa150-end (from UniProt P36896)”, “TSSK1B, construct: Full length (from UniProt Q9BXA7)” is lower in relative phosphorylation: 1.01 for the first, 0.97 for the second.

First: CSNK1A1L, construct: Full length (from UniProt Q8N752)
Second: CSNK1G3, construct: Full length (from UniProt Q9Y6M4)
The relative phosphorylation of the first is lower: 1.12 for the first, 1.17 for the second.

same assay, conditions: F fixed; at +3

Compared with “CIT, construct: aa1-449 (from UniProt O14578)”, “PAK1, construct: aa150-end (from UniProt Q13153)” is lower in relative phosphorylation: 1.37 for the first, 1.33 for the second.

Compared with “CAMK2D, construct: Full length (from UniProt Q13557)”, “CDKL1, construct: aa2-304 (from UniProt Q00532)” is higher in relative phosphorylation: 0.852 for the first, 0.924 for the second.

First: ACVR1B, construct: aa150-end (from UniProt P36896)
Second: TSSK1B, construct: Full length (from UniProt Q9BXA7)
The relative phosphorylation of the first is higher: 1.19 for the first, 1.09 for the second.

First: CSNK1A1L, construct: Full length (from UniProt Q8N752)
Second: CSNK1G3, construct: Full length (from UniProt Q9Y6M4)
The relative phosphorylation of the first is lower: 1.17 for the first, 1.22 for the second.

same assay, conditions: F fixed; at +4

Compared with “CIT, construct: aa1-449 (from UniProt O14578)”, “PAK1, construct: aa150-end (from UniProt Q13153)” is lower in relative phosphorylation: 0.882 for the first, 0.741 for the second.

First: CAMK2D, construct: Full length (from UniProt Q13557)
Second: CDKL1, construct: aa2-304 (from UniProt Q00532)
The relative phosphorylation of the first is lower: 0.726 for the first, 0.916 for the second.

Going from “ACVR1B, construct: aa150-end (from UniProt P36896)” to “TSSK1B, construct: Full length (from UniProt Q9BXA7)”, the relative phosphorylation rises from 0.997 to 1.33.

Going from “CSNK1A1L, construct: Full length (from UniProt Q8N752)” to “CSNK1G3, construct: Full length (from UniProt Q9Y6M4)”, the relative phosphorylation rises from 1.05 to 1.43.

same assay, conditions: F fixed; at -1

Going from “CIT, construct: aa1-449 (from UniProt O14578)” to “PAK1, construct: aa150-end (from UniProt Q13153)”, the relative phosphorylation falls from 0.778 to 0.696.

Compared with “CAMK2D, construct: Full length (from UniProt Q13557)”, “CDKL1, construct: aa2-304 (from UniProt Q00532)” is higher in relative phosphorylation: 0.811 for the first, 0.835 for the second.

Compared with “ACVR1B, construct: aa150-end (from UniProt P36896)”, “TSSK1B, construct: Full length (from UniProt Q9BXA7)” is lower in relative phosphorylation: 0.896 for the first, 0.617 for the second.

First: CSNK1A1L, construct: Full length (from UniProt Q8N752)
Second: CSNK1G3, construct: Full length (from UniProt Q9Y6M4)
The relative phosphorylation of the first is lower: 0.872 for the first, 0.905 for the second.
